From patent US20240269196A1, “RESPIRATORY TREATMENTS USING SALMONID OIL COMPOSITIONS” (Hofseth Biocare ASA, priority 2020, published 2024)

Legend:
[1] = system: House Dust Mite (HDM) extract-induced murine asthma model; test: House Dust Mite (HDM) extract-induced murine asthma model: BAL fluid and spleen cellularity; format: in vivo, mice; details: 5 μg/animal, day 7 to day 14, N=5; for Percent eosinophil in spleen tissue (Mean): spleen on day 15
Method: For this purpose, normal saline (NS) was used as a vehicle control and Apolipoprotein A-IV (ApoA-IV) was used as a positive control, respectively. The study involved induction of asthmatic condition in mice using HDM extract and simultaneous evaluation of the effects of OmeGo Salmon oil (CARDIO softgels; 20 or 60 μg/animal) and ApoA-IV (5 μg/animal; as a positive control) on cosinophil modulation in mice.
On day 1, all 20 mice were anesthetized and sensitized intranasally with 1 μg HDM protein in 40 μL PBS. From day 7 to day 11, all 20 mice were challenged by daily intranasal application of 10 μg HDM protein in 40 μL PBS. Mice were randomly divided into four groups with five mice in each group for differential treatment from day 7 to day 14. From day 7 to day 14, each animal in the first group (G1) received 100 μL NS; each animal in the second group (G2) received 20 μg CARDIO in 100 μL NS; each animal in the third group (G3) received 60 μg CARDIO in 100 μL NS; and each animal in the fourth group (G4) received 5 μg ApoA-IV in 100 μL NS.
The Broncho-Alveolar Lavage (BAL) fluid and spleen were collected from all 20 mice on day 15, and cellularity of the collected samples were analyzed by flow cytometry.

[2] = system: eosinophils in healthy donor PMNL samples; test: Shape change assay: CCL11-stimulated eosinophil shape change in PMNL, flow cytometry (FSC); format: cell-based, human; details: Example 1, 3 μg/mL ApoA-IV pretreatment 30 min
Method: (§1) PMNL samples were pretreated with 3 μg/mL ApoA-IV (positive control), 100 μg/mL SO, and formulation vehicle (negative control) for 30 minutes and stimulated with serial dilutions of CCL11 for 20 minutes at 37° C. Shape change was monitored by flow cytometry as the increase of forward scatter (FSC) and was expressed as percent of the vehicle response. Note, eosinophils are distinguishable from neutrophils by their SSC properties and autofluorescence.
(§2) The chemotactic factor, CCL11, was used to prime eosinophils to immediately prepare for diapedesis through the endothelium by rearranging their cytoskeleton. This morphological change was detected by flow cytometry as an increase in the forward scatter properties of these cells. The effects of SO at 100 μg/mL was studied and compared to the known effect of 3 μg/mL ApoA-IV on eosinophil shape change in healthy donor PMNL samples. The pretreated samples were stimulated with serial dilutions of CCL11, and shape change was monitored by flow cytometry.
as §1, with “with” for “with 3 μg/mL ApoA-IV (positive control),”, “SO, heat, acid and base treated SO, krill oil, standard 18/12 fish oil,” for “SO,”, “Eosinophils were” for “Note, eosinophils are”, “auto-fluorescence.” for “autofluorescence.”
as §2, with “various processing treatments on SO, krill oil and standard 18/12 fish oil” for “known effect of 3 μg/mL ApoA-IV”

[3] = system: CD11b on eosinophils (PMNL surface); test: CD11b (integrin) upregulation assay, CCL11-stimulated PMNL, flow cytometry; format: cell-based, human; details: Example 1, 3 μg/mL ApoA-IV pretreatment 30 min
Method: (§3) PMNL samples were pretreated with 3 μg/mL ApoA-IV (positive control), 100 μg/mL SO, and formulation vehicle (negative control) for 30 minutes and incubated with serial dilutions of CCL11 for 30 minutes at 37° C. Samples were stained with anti-CD16-PE-Cy5 and anti-CD11b-PE (ICRF44) antibodies. Eosinophils were identified as CD16 negative cells. CD11b upregulation was analyzed by flow cytometry.
A precondition for eosinophil migration is upregulation of adhesion molecules such as the αmβ2 integrins (CD11b/CD18).
as §3, with “with” for “with 3 μg/mL ApoA-IV (positive control),”, “SO, heat, acid and base treated SO, krill oil, standard 18/12 fish oil,” for “SO,”

[4] = system: allergic human eosinophils; test: Apoptosis assay (Annexin V-FITC, flow cytometry); format: cell-based; details: Example 1; 3 μg/mL ApoA-IV; 18 hr incubation; IL-5 50 pM
Method: (§4) The allergic human eosinophils were placed in RPMI 1640 medium supplemented with IL-5 (50 pM), 1% FBS and PenStrep in the presence of 3 μg/mL ApoA-IV (positive control), 100 μg/mL SO, and formulation vehicle (negative control). Aliquots were removed after 18 hr incubation, washed twice in PBS, and resuspended in binding buffer. The eosinophil cells were stained using the Annexin V-FITC Apoptosis Detection Kit I, (Sigma Aldrich) and immediately analyzed by flow cytometry. Each sample was acquired for 1 min, and the total number of eosinophils gated on a forward scatter/side scatter plot and the percentage of live cells (annexin Vneg) and apoptotic cells (annexin Vpos) was recorded.
as §4, with “of” for “of 3 μg/mL ApoA-IV (positive control),”, “SO, heat, acid and base treated SO, krill oil, standard 18/12 fish oil,” for “SO,”, “Aliquots were removed after 18 hr incubation, washed twice in PBS, and resuspended in binding buffer.” left out, “recorded. […]” for “recorded.”

B1: Apolipoprotein A-IV (protein, UniProt P06727 21-396, looked up)
Apolipoprotein A-IV: EVSADQVATVMWDYFSQLSNNAKEAVEHLQKSELTQQLNALFQDKLGEVNTYAGDLQKKLVPFATELHERLAKDSEKLKEEIGKELEELRARLLPHANEVSQKIGDNLRELQQRLEPYADQLRTQVSTQAEQLRRQLTPYAQRMERVLRENADSLQASLRPHADELKAKIDQNVEELKGRLTPYADEFKVKIDQTVEELRRSLAPYAQDTQEKLNHQLEGLTFQMKKNAEELKARISASAEELRQRLAPLAEDVRGNLRGNTEGLQKSLAELGGHLDQQVEEFRRRVEPYGENFNKALVQQMEQLRQKLGPHAGDVEGHLSFLEKDLRDKVNSFFSTFKEKESQDKTLSLPELEQQQEQQQEQQQEQVQMLAPLES
notes: positive control protein
Cell count in BAL fluid: Eosinophil count (Mean) ([1]; BAL on day 15): 28220
Percent eosinophil in spleen tissue (Mean) [1]: 2.34%
Percent eosinophil in spleen tissue (Mean) ([1]; listed as ApoA-IV): significantly decreased
Shape change (100% as baseline) of PMNL ([2]; CCL11 0.05 nM): 100%
Shape change (100% as baseline) of PMNL ([2]; CCL11 0.10 nM): 103%
Shape change (100% as baseline) of PMNL ([2]; CCL11 0.25 nM): 105%
Shape change (100% as baseline) of PMNL ([2]; CCL11 0.50 nM): 106%
Shape change (100% as baseline) of PMNL ([2]; CCL11 0.75 nM): 108%
Shape change (100% as baseline) of PMNL ([2]; CCL11 1.00 nM): 109%
Shape change (100% as baseline) of PMNL ([2]; CCL11 2.50 nM): 109%
Shape change (100% as baseline) of PMNL ([2]; CCL11 5.00 nM): 107%
CB11b change (100% as baseline) on PMNL surface ([3]; CCL11 0.01 nM): 95%
CB11b change (100% as baseline) on PMNL surface ([3]; CCL11 0.50 nM): 103%
CB11b change (100% as baseline) on PMNL surface ([3]; CCL11 1.00 nM): 122%
CB11b change (100% as baseline) on PMNL surface ([3]; CCL11 2.50 nM): 125%
CB11b change (100% as baseline) on PMNL surface ([3]; CCL11 5.00 nM): 125%
CB11b change (100% as baseline) on PMNL surface ([3]; CCL11 10.00 nM): 114%
percentage of apoptotic cells (annexin Vpos) [4]: 60±3.8%
percentage of live cells (annexin Vneg) [4]: 31.5±2.3%
